Changes are numbered by the printed parent chain.

This is an account of results in paper PMC2788773 (Molecular cell, 2009).

Experiment in all cases: pull-down
In assay [1] the target is T1, His6-S-Rad54-T132A (S. cerevisiae (budding yeast), UniProt P32863 1-898, T132A).
T1 sequence (looked up): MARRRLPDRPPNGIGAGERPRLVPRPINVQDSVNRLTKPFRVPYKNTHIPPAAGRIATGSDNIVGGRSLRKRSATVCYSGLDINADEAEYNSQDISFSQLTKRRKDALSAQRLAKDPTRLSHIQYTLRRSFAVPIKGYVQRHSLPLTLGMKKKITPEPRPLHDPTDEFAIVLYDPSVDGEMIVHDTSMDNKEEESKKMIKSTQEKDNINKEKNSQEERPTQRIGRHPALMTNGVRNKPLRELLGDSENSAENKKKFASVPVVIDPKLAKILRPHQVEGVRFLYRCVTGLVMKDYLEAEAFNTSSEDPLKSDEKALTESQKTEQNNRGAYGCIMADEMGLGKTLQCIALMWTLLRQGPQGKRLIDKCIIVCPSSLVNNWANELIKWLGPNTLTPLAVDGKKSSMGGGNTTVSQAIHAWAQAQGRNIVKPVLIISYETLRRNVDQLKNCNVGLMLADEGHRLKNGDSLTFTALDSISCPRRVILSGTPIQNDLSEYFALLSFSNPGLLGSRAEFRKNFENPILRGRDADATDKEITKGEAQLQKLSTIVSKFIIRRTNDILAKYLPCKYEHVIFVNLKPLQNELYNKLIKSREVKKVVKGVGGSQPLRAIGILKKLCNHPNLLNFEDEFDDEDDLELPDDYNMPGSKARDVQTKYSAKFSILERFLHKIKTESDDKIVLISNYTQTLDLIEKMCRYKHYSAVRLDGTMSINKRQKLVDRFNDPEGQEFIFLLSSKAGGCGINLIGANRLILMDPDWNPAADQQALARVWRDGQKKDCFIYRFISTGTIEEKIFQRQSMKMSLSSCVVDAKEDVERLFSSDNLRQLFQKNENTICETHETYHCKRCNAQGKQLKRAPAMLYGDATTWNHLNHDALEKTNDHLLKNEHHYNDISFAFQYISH

For assay [2], the target named is T2, His6-S-Rad54-T132D (S. cerevisiae (budding yeast), UniProt P32863 1-898, T132D).
T2 sequence (looked up): T1 sequence (looked up) with A132D

In assay [3] the target is T3, His6-S-Rad54 (S. cerevisiae (budding yeast), UniProt P32863 1-898).
T3 sequence (looked up): T1 sequence (looked up) with A132T

B1: Rad51 (natural protein, S. cerevisiae (budding yeast), UniProt P25454 1-400, looked up)
chain: MSQVQEQHISESQLQYGNGSLMSTVPADLSQSVVDGNGNGSSEDIEATNGSGDGGGLQEQAEAQGEMEDEAYDEAALGSFVPIEKLQVNGITMADVKKLRESGLHTAEAVAYAPRKDLLEIKGISEAKADKLLNEAARLVPMGFVTAADFHMRRSELICLTTGSKNLDTLLGGGVETGSITELFGEFRTGKSQLCHTLAVTCQIPLDIGGGEGKCLYIDTEGTFRPVRLVSIAQRFGLDPDDALNNVAYARAYNADHQLRLLDAAAQMMSESRFSLIVVDSVMALYRTDFSGRGELSARQMHLAKFMRALQRLADQFGVAVVVTNQVVAQVDGGMAFNPDPKKPIGGNIMAHSSTTRLGFKKGKGCQRLCKVVDSPCLPEAECVFAIYEDGVGDPREEDE
Take B1: the binding result in assay [1] and in assay [3] was “binds” in each case. Besides, the “fold reduction in Rad51 binding compared to Rad54” value in assay [2] is 2 fold.
